Measurements taken from the supplement of paper PMC10899765.

Tests used:
Details in all cases: 20 nM; 72 h
MCF10A [1] = assay: one-nucleolus phenotype percent effect (relative to siNT 0% and siNOL11 100%); higher = more cells with one nucleolus (ribosome biogenesis inhibition)
Description: (§1)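 After 72 h, cells were fixed and stained with Hoechst and anti-fibrillarin, and nucleoli per nucleus were counted with CellProfiler. Values are plate-adjusted percent effect for the one-nucleolus and 5+ nucleoli phenotypes, normalised to siNT (0%) and to the positive controls siNOL11 or siKIF11 (100%), as the mean of biological triplicates. Percent viability is the nuclei count relative to siNT.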

MCF10A [2] = assay: percent viability (nuclei count relative to siNT); higher = more viable cells
Description: as §1

MCF10A [3] = assay: 5+ nucleoli phenotype percent effect (relative to siNT 0% and siKIF11 100%); higher = more cells with five or more nucleoli
Description: as §1

Row | Sequence | one-nucleolus phenotype percent effect (MCF10A [1]) [%] | percent viability (MCF10A [2]) [%] | 5+ nucleoli phenotype percent effect (MCF10A [3]) [%]
1 | CAUAGCCCGGUCGCUGGUACAUGA [hsa-miR-3651] | 17.1 | 70 | -7.1
2 | CAUCAGAAUUCAUGGAGGCUAG [hsa-miR-2115-3p] | 15.3 | 39 | -5.23
3 | CAUCAGCACCCUAUGUCCUUUCU [hsa-miR-3617-3p] | 29.5 | 20 | -20.3
4 | CAUCAUCGUCUCAAAUGAGUCU [hsa-miR-136-3p] | -9.83 | 37.4 | 22.1
5 | CAUCCCUUGCAUGGUGGAGGG [hsa-miR-188-5p] | -13.1 | 98.4 | 45.6
6 | CAUCCGUCCGUCUGUCCAC [hsa-miR-4800-3p] | -2.39 | 67.4 | -3.64
7 | CAUCUCUAAGGAACUCCCCCAA [hsa-miR-3675-3p] | 10.4 | 62 | 8.48
8 | CAUCUGGGCAACUGACUGAAC [hsa-miR-1298-3p] | 57 | 7.06 | -17.1
9 | CAUCUUACCGGACAGUGCUGGA [hsa-miR-200a-5p] | 5.98 | 56 | -26
10 | CAUCUUACUGGGCAGCAUUGGA [hsa-miR-200b-5p] | -11.1 | 73.7 | 0.989
11 | CAUCUUCCAGUACAGUGUUGGA [hsa-miR-141-5p] | -9.13 | 64.8 | -4.79
12 | CAUGACGUCACAGAGGCUUCGC [hsa-miR-4757-3p] | -14.4 | 61.2 | 36.1
13 | CAUGCCUUGAGUGUAGGACCGU [hsa-miR-532-5p] | 19.3 | 19.5 | -20.1
14 | CAUGCUAGGAUAGAAAGAAUGG [hsa-miR-3146] | 15.7 | 30.5 | -22.8
15 | CAUGCUGACCUCCCUCCUGCCCCAG [hsa-miR-4728-3p] | -12.7 | 69.7 | 20.8
16 | CAUGGGAGUUCGGGGUGGUUGC [hsa-miR-6871-5p] | 14.1 | 25.6 | 5.7
17 | CAUGGGGUAGGGCAGAGUAGG [hsa-miR-6890-5p] | 21.6 | 43.6 | -15.7
18 | CAUGGUUCUGUCAAGCACCGCG [hsa-miR-218-2-3p] | 12.5 | 68 | 7.58
19 | CAUUACAGCACAGCCAUUCU [hsa-miR-6504-3p] | 2.85 | 47.5 | -25.6
20 | CAUUAUUACUUUUGGUACGCG [hsa-miR-126-5p] | -14.9 | 88.9 | 12.5
21 | CAUUCAACUAGUGAUUGU [hsa-miR-4272] | -23.4 | 170 | 33.7
22 | CAUUGCACUUGUCUCGGUCUGA [hsa-miR-25-3p] | 3.94 | 96.4 | -21.1
23 | CCAAAACUGCAGUUACUUUUGC [hsa-miR-548o-3p] | -18 | 99.8 | 27.5
24 | CCAAACCAGUCGUGCCUGUGG [hsa-miR-6715a-3p] | 24.3 | 40.8 | -42
